B1: glmS ribozyme (parent)
chain: AUAAAAGCGCCAGAACUACAGAAAUGUAGUUGACGAGGAGGAGGUUUAUCGAAUUUUCGGCGGAUGCCUCCAAA

Holding throughout (conditions): with glucosamine-6-phosphate
Variants of B1 are the subject of data set [1]. As to the kind of experiment: kcat; higher = faster cleavage; RNA array. In outline: (§1)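 Over ~14 h at 37 °C, tiles were imaged as glucosamine-6-phosphate (40 μM to 10 mM) in HEPES/KCl/Mg(OAc)2 buffer flowed across sequenced MiSeq chips. The chips carried barcoded ribozyme variants transcribed in situ by E. coli RNA polymerase and tracked with a hybridised Cy3 probe. After normalisation to baseline and to non-cleaving reference variants, one- or two-exponential decay fits of per-tile medians gave kobs. kcat and KM followed from weighted Michaelis–Menten fits across concentrations.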

In data set [2] the parent is B1. As to the kind of experiment: KM; higher = weaker cofactor use; RNA array. In outline:
as §1

The variants in data set [3] derive from B1. As to the kind of experiment: self-cleavage kobs at 640 uM GlcN6P; higher = faster cleavage; RNA array. Put shortly: as §1
The variants in data set [4] derive from B1. As to the kind of experiment: self-cleavage kobs at 2500 uM GlcN6P; higher = faster cleavage; RNA array. In outline:
as §1

In data set [5] the parent is B1. As to the kind of experiment: self-cleavage kobs at 10000 uM GlcN6P; higher = faster cleavage; RNA array. In outline:
as §1

Variants of B1 are the subject of data set [6]. As to the kind of experiment: self-cleavage kobs at 160 uM GlcN6P; higher = faster cleavage; RNA array. In outline:
as §1

Variants of B1 are the subject of data set [7]. The experiment in a line: self-cleavage kobs at 40 uM GlcN6P; higher = faster cleavage; RNA array. In outline:
as §1

± gives the standard error. For some of these results: Variants at the floor of the assay were thinned out.

As for G32U C68G, the kcat in the data set with glucosamine-6-phosphate [1] amounted to 1.3e-05 ± 1.3e-06 s⁻¹.
Take U30A G41U: the catalytic constant (kcat) with glucosamine-6-phosphate [1] came to 0.000138 ± 2.1e-05 s⁻¹. For the same variant, the Michaelis constant (KM) in the data set with glucosamine-6-phosphate [2] is 608 ± 300 µM. Also, the “self-cleavage kobs at 640 uM GlcN6P” value with glucosamine-6-phosphate [3] came to 6.73e-05 ± 9.9e-06 s⁻¹. The “self-cleavage kobs at 2500 uM GlcN6P” value with glucosamine-6-phosphate [4] turned out to be 0.000147 ± 1.8e-05 s⁻¹. The “self-cleavage kobs at 10000 uM GlcN6P” value in the data set with glucosamine-6-phosphate [5] was found to be 0.000117 ± 1.4e-05 s⁻¹.
Consider A14U A33C, for which the kcat with glucosamine-6-phosphate [1] is 7.66e-05 ± 5.8e-06 s⁻¹. Also, in the data set with glucosamine-6-phosphate [2], the Michaelis-Menten constant (KM) came out at 1620 ± 560 µM. Also, the “self-cleavage kobs at 2500 uM GlcN6P” value in the data set with glucosamine-6-phosphate [4] came out at 5.28e-05 ± 1.3e-05 s⁻¹. Further, the “self-cleavage kobs at 10000 uM GlcN6P” value with glucosamine-6-phosphate [5] was 6.52e-05 ± 7.3e-06 s⁻¹.
With U46C C58A, in the data set with glucosamine-6-phosphate [1], the turnover number (kcat) is 0.000527 ± 0.00012 s⁻¹. For the same variant, the “self-cleavage kobs at 640 uM GlcN6P” value in the data set with glucosamine-6-phosphate [3] was 2.77e-05 ± 9.7e-06 s⁻¹. Besides, in the data set with glucosamine-6-phosphate [4], the “self-cleavage kobs at 2500 uM GlcN6P” value was found to be 7.47e-05 ± 1.3e-05 s⁻¹. Also, the “self-cleavage kobs at 10000 uM GlcN6P” value in the data set with glucosamine-6-phosphate [5] came to 0.00022 ± 3.4e-05 s⁻¹.
Consider C11A U30A, for which the kcat with glucosamine-6-phosphate [1] stood at 0.000318 ± 4.7e-05 s⁻¹. Besides, the Michaelis-Menten constant (KM) in the data set with glucosamine-6-phosphate [2] turned out to be 1940 ± 600 µM. Moreover, the “self-cleavage kobs at 640 uM GlcN6P” value in the data set with glucosamine-6-phosphate [3] stood at 8.58e-05 ± 1.7e-05 s⁻¹. The “self-cleavage kobs at 2500 uM GlcN6P” value with glucosamine-6-phosphate [4] was found to be 0.000146 ± 3.4e-05 s⁻¹. For the same variant, in the data set with glucosamine-6-phosphate [5], the “self-cleavage kobs at 10000 uM GlcN6P” value worked out at 0.000288 ± 4.4e-05 s⁻¹.
A36U C50A: the kcat with glucosamine-6-phosphate [1] is less than 1e-05 s⁻¹. For the same variant, the “self-cleavage kobs at 160 uM GlcN6P” value in the data set with glucosamine-6-phosphate [6] was less than 1e-05 s⁻¹.
Take A12U G60U G66C C68U: the kcat with glucosamine-6-phosphate [1] is less than 1e-05 s⁻¹. The “self-cleavage kobs at 10000 uM GlcN6P” value with glucosamine-6-phosphate [5] is less than 1e-05 s⁻¹.
Consider U31G U49G, for which the kcat with glucosamine-6-phosphate [1] was 0.000191 ± 2.6e-06 s⁻¹. In the data set with glucosamine-6-phosphate [2], the Michaelis constant (KM) came to 2140 ± 89 µM. The “self-cleavage kobs at 640 uM GlcN6P” value in the data set with glucosamine-6-phosphate [3] worked out at 4.38e-05 ± 1.9e-05 s⁻¹. The “self-cleavage kobs at 2500 uM GlcN6P” value with glucosamine-6-phosphate [4] was 0.000102 ± 1.4e-05 s⁻¹. For the same variant, in the data set with glucosamine-6-phosphate [5], the “self-cleavage kobs at 10000 uM GlcN6P” value was found to be 0.000157 ± 1.4e-05 s⁻¹.
Consider A14G U31A U57A C71G, for which the kcat with glucosamine-6-phosphate [1] was 2.93e-05 ± 8.2e-06 s⁻¹.
In the case of A12G A64G, the kcat in the data set with glucosamine-6-phosphate [1] was 0.000701 ± 0.00021 s⁻¹. Moreover, the KM with glucosamine-6-phosphate [2] came out at 2560 ± 1100 µM. In the data set with glucosamine-6-phosphate [6], the “self-cleavage kobs at 160 uM GlcN6P” value was found to be 6.59e-05 ± 1.7e-05 s⁻¹. In addition, in the data set with glucosamine-6-phosphate [3], the “self-cleavage kobs at 640 uM GlcN6P” value turned out to be 0.000128 ± 1.7e-05 s⁻¹. Moreover, the “self-cleavage kobs at 2500 uM GlcN6P” value with glucosamine-6-phosphate [4] is 0.000367 ± 5.3e-05 s⁻¹. For the same variant, the “self-cleavage kobs at 10000 uM GlcN6P” value with glucosamine-6-phosphate [5] stood at 0.000537 ± 0.00017 s⁻¹.
Consider G29A A53C, for which the kcat in the data set with glucosamine-6-phosphate [1] stood at 0.000592 ± 0.0002 s⁻¹. Also, in the data set with glucosamine-6-phosphate [6], the “self-cleavage kobs at 160 uM GlcN6P” value worked out at 9.67e-05 ± 2.5e-05 s⁻¹. The “self-cleavage kobs at 640 uM GlcN6P” value with glucosamine-6-phosphate [3] came to 0.000185 ± 5.1e-05 s⁻¹. Also, the “self-cleavage kobs at 2500 uM GlcN6P” value with glucosamine-6-phosphate [4] is 0.00047 ± 0.00011 s⁻¹.
In the case of A15U U30G, in the data set with glucosamine-6-phosphate [1], the kcat turned out to be 0.0605 ± 0.018 s⁻¹. The KM with glucosamine-6-phosphate [2] turned out to be 3400 ± 1200 µM. For the same variant, the “self-cleavage kobs at 40 uM GlcN6P” value in the data set with glucosamine-6-phosphate [7] was 0.000777 ± 7.3e-05 s⁻¹. For the same variant, the “self-cleavage kobs at 160 uM GlcN6P” value with glucosamine-6-phosphate [6] was found to be 0.00242 ± 0.00032 s⁻¹. In the data set with glucosamine-6-phosphate [3], the “self-cleavage kobs at 640 uM GlcN6P” value came to 0.00977 ± 0.0011 s⁻¹. Also, the “self-cleavage kobs at 2500 uM GlcN6P” value with glucosamine-6-phosphate [4] was determined as 0.0219 ± 0.0035 s⁻¹. Moreover, the “self-cleavage kobs at 10000 uM GlcN6P” value with glucosamine-6-phosphate [5] turned out to be 0.0582 ± 0.012 s⁻¹.
As to G32C C71G, in the data set with glucosamine-6-phosphate [1], the catalytic constant (kcat) was 1.39e-05 ± 7.5e-07 s⁻¹. For the same variant, the KM in the data set with glucosamine-6-phosphate [2] came out at 86.6 ± 35 µM.
A12C A53U: the catalytic constant (kcat) in the data set with glucosamine-6-phosphate [1] was found to be 0.015 ± 0.0038 s⁻¹. The KM with glucosamine-6-phosphate [2] was 2160 ± 740 µM. Moreover, in the data set with glucosamine-6-phosphate [7], the “self-cleavage kobs at 40 uM GlcN6P” value amounted to 0.000376 ± 4.9e-05 s⁻¹. Further, the “self-cleavage kobs at 160 uM GlcN6P” value with glucosamine-6-phosphate [6] worked out at 0.000867 ± 0.00013 s⁻¹. The “self-cleavage kobs at 640 uM GlcN6P” value with glucosamine-6-phosphate [3] was 0.00317 ± 0.00041 s⁻¹. Further, the “self-cleavage kobs at 2500 uM GlcN6P” value with glucosamine-6-phosphate [4] worked out at 0.0103 ± 0.0019 s⁻¹. In addition, the “self-cleavage kobs at 10000 uM GlcN6P” value in the data set with glucosamine-6-phosphate [5] was determined as 0.0121 ± 0.0016 s⁻¹.
As for A6U G35U G38C A53U A64G, the catalytic constant (kcat) with glucosamine-6-phosphate [1] was less than 1e-05 s⁻¹. For the same variant, the “self-cleavage kobs at 160 uM GlcN6P” value with glucosamine-6-phosphate [6] is less than 1e-05 s⁻¹.
For the variant A12C G37C, the kcat with glucosamine-6-phosphate [1] was found to be 8.54e-05 ± 2.4e-06 s⁻¹. Also, the KM with glucosamine-6-phosphate [2] came to 6970 ± 420 µM. The “self-cleavage kobs at 2500 uM GlcN6P” value in the data set with glucosamine-6-phosphate [4] was found to be 2.27e-05 ± 8.6e-06 s⁻¹. Also, the “self-cleavage kobs at 10000 uM GlcN6P” value in the data set with glucosamine-6-phosphate [5] came to 5.03e-05 ± 7.5e-06 s⁻¹.
For C16G A53U, in the data set with glucosamine-6-phosphate [1], the kcat came out at 0.00332 ± 0.00045 s⁻¹. Further, the KM with glucosamine-6-phosphate [2] amounted to 1910 ± 380 µM. In addition, the “self-cleavage kobs at 40 uM GlcN6P” value with glucosamine-6-phosphate [7] came to 8.15e-05 ± 1.4e-05 s⁻¹. The “self-cleavage kobs at 160 uM GlcN6P” value with glucosamine-6-phosphate [6] was 0.000238 ± 6e-05 s⁻¹. In addition, the “self-cleavage kobs at 640 uM GlcN6P” value with glucosamine-6-phosphate [3] was determined as 0.000752 ± 0.00012 s⁻¹. For the same variant, the “self-cleavage kobs at 2500 uM GlcN6P” value with glucosamine-6-phosphate [4] was determined as 0.00182 ± 0.0004 s⁻¹. In addition, in the data set with glucosamine-6-phosphate [5], the “self-cleavage kobs at 10000 uM GlcN6P” value came out at 0.00295 ± 0.00047 s⁻¹.
Take U30A C58U: the turnover number (kcat) with glucosamine-6-phosphate [1] was 1.78e-05 ± 3.6e-06 s⁻¹.
Consider G38C G51C, for which, in the data set with glucosamine-6-phosphate [1], the turnover number (kcat) was determined as 1.04e-05 ± 4.5e-06 s⁻¹.
G40C A52U: in the data set with glucosamine-6-phosphate [1], the turnover number (kcat) is 8.17e-05 ± 1.4e-05 s⁻¹. Besides, the “self-cleavage kobs at 2500 uM GlcN6P” value with glucosamine-6-phosphate [4] was determined as 7.08e-05 ± 9.7e-06 s⁻¹. Moreover, in the data set with glucosamine-6-phosphate [5], the “self-cleavage kobs at 10000 uM GlcN6P” value is 7.15e-05 ± 8.3e-06 s⁻¹.

For the origin of these results see the supplement of paper PMC7125110.
